Test [1] has as its target hen egg lysozyme (hen) (UniProt P00698). Nature of the test: phage ELISA with 50 µl phage supernatant, sheep anti-M13 detection; background 0.1. Background: An ELISA detects its analyte on a solid surface through an enzyme-linked reagent.
For test [2] the target is unchanged. Briefly: BIAcore, HEL coated chip.

By koff is commonly meant the rate constant with which the complex falls apart. Lower therefore signals a long-lived complex.

Sequence of UniProt P00698 (P00698 19-147 limits assumed): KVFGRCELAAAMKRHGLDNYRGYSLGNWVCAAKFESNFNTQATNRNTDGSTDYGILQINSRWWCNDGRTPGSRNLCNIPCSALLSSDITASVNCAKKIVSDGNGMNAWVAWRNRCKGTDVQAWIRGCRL

“NQ11/D1.3/0 bispecific diabody displayed on the surface of phage (bispecific antibody)”: the absorbance signal in test [1] worked out at 2.8. chimaeric D1.3 Fab fragment yielded a dissociation rate constant (koff) in test [2] of 0.003 s⁻¹. The same measure, in the same setting: to “bispecific NQ11/D1.3 diabody, construct VI, 5 residue linkers (bispecific antibody)” belongs 0.0022 s⁻¹.

Values taken from patent US7122646.
